In assay [1] the target is NKG2d (NKG2-D type II integral membrane protein) on NKL cells / NK cells (human) (UniProt P26718). Put plainly: flow cytometry on NKL cells, secondary antibody alone without primary antibody (background control), column 6 nM. Background: In flow cytometry, cells or beads pass a laser one at a time.
The target is the same in assay [2]. Put plainly: flow cytometry on NKL cells, secondary antibody alone without primary antibody (background control), column 60 nM.
Assay [3] has the same target. Put plainly: flow cytometry on NKL cells, secondary antibody alone without primary antibody (background control), column 0.6 nM.

Sequence of NKG2d (NKG2-D type II integral membrane protein) on NKL cells / NK cells (human) (P26718 whole entry): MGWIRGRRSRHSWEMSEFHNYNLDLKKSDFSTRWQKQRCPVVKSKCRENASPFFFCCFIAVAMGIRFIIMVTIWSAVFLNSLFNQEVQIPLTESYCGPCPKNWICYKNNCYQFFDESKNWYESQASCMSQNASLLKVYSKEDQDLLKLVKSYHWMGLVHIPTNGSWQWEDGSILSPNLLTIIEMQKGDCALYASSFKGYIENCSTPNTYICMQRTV

With “secondary antibody only (Goat anti hu-Fc AF647)”, the results for the geomean fluorescence in assay [1], in assay [2] and in assay [3] were 115, 63.8 and 92.6, respectively.

(Values after patent US20240182582A1.)
